The target in assay [1] is T1, DDB1:CRBN complex, full-length human CRBN (residues 1–442) with N-terminal biotinylated Avi-tag, co-expressed … (human, UniProt Q96SW2 1-442; Q16531 1-1140, biotin on the Avi-tag (BirA, 100% efficiency)). Nature of the assay: SPR; pomalidomide 5 uM. (Surface plasmon resonance follows binding to a sensor surface in real time, without labels.)
Assay [2] addresses T1, DDB1:CRBN complex, full-length human …. Nature of the assay: SPR; CC-220 5 uM.
Assay [3] has the same target. Kind of assay: SPR; pomalidomide.
The target is the same in assay [4]. Kind of assay: SPR; CC-220.
The target is the same in assay [5]. Kind of assay: SPR; CC-220. The source holds these as a separate data set.
Assay [6] shares this target. Nature of the assay: SPR; pomalidomide. This is another data set of the same source.

The values that follow come from publication PMC10716131 (2023).

T1 sequence (Q96SW2 whole entry, chain 1 of 2, the tested form may be a part): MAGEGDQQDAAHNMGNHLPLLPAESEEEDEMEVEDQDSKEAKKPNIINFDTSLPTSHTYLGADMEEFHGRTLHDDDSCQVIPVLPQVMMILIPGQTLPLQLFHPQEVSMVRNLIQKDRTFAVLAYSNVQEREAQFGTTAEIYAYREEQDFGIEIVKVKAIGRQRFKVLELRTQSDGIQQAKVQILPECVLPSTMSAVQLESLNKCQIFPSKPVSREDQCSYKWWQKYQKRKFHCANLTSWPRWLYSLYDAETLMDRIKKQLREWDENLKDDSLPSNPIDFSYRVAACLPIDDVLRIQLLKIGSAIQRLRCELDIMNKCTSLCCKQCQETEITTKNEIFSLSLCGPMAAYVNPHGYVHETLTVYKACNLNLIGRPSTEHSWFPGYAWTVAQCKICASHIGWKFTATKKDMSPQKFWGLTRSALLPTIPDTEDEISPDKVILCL
T1 sequence (Q16531 whole entry, chain 2 of 2, the tested form may be a part): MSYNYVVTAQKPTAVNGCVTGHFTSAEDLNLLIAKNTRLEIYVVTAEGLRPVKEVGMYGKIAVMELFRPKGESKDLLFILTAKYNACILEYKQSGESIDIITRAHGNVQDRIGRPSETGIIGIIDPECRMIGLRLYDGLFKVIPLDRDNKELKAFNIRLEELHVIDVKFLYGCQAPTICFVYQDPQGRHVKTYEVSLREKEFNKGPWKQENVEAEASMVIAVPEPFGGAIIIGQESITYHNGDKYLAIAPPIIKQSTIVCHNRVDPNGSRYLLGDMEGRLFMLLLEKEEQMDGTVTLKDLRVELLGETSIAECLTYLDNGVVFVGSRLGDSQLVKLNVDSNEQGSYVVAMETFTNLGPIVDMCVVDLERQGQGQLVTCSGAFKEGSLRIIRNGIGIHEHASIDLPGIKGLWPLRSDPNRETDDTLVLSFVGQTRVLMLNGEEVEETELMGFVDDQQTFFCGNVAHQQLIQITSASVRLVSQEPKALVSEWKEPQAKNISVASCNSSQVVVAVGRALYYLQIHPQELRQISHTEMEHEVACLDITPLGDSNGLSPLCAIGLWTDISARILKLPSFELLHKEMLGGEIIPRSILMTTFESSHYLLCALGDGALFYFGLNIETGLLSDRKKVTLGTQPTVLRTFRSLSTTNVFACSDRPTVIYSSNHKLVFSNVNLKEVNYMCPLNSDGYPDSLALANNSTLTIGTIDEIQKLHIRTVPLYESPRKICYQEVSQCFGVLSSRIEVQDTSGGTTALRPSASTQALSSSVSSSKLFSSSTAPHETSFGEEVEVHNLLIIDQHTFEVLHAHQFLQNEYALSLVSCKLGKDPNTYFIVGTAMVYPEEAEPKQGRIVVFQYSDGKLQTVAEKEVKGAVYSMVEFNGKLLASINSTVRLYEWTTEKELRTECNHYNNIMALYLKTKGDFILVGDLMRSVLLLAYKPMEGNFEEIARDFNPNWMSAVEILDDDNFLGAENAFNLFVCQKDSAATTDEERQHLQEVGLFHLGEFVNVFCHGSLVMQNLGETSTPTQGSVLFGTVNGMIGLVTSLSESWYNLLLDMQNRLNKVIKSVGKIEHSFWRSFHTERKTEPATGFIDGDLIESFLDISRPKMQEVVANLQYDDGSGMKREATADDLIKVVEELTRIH

TGERPFVCSVCGHRFTTKGNLKVHFHRHPQVKANPQLFAEFQDKVAAGNG (domain or fragment) [Human SALL4 ZF2(405–454)]: the Kd (commonly a measure of binding affinity in units of concentration) was found to be 0.7 µM in assay [1] and 2.1 µM in assay [2].

B1: Human SALL4 ZF2(405–432) (domain or fragment)
chain: not shown
On to B1, for which, in assay [1], the Kd amounted to 67.1 µM.

B2: Human SALL4 ZF1-2(370–454) (domain or fragment)
chain: DVKPKDEAALYKHKCKYCSKVFGTDSSLQIHLRSHTGERPFVCSVCGHRFTTKGNLKVHFHRHPQVKANPQLFAEFQDKVAAGNG
B2: the figures for the koff in assay [3] and in assay [5] were 0.015 s⁻¹ and 0.042 s⁻¹, respectively. For the same molecule, the Kd in assay [4] was 0.28 µM; in assay [6] it was 0.06 µM; in assay [1] it was 0.06 µM; in assay [2], 0.31 µM.

In turn, TGERPFVCSVCGHRFTTKGNLKVHFHRHPQVKA (domain or fragment) [Human SALL4 ZF2(405–437)] showed a Kd in assay [2] of 4 µM.

B3: Human SALL4 ZF1-2(379–432) (domain or fragment)
chain: LYKHKCKYCSKVFGTDSSLQIHLRSHTGERPFVCSVCGHRFTTKGNLKVHFHRH
Regarding B3, the values for the koff in assay [3] and in assay [5] were 0.26 s⁻¹ and 0.34 s⁻¹, respectively. Further, the Kd worked out at 150 µM in assay [4] and 2.1 µM in assay [6].
